Data from US20180010117.

How the values were obtained:
Assay in all cases: cell_activity
[1] = system: ZFN SBS#61034 (engineered); details: paired with 61041, K562, 800 ng RNA each; 9.6 at 200 ng; with 61042 26.1
[2] = system: ZFN SBS#61036 (engineered); details: paired with 61041, K562, 800 ng RNA each; 14.5 at 200 ng; with 61042 40.6
[3] = system: ZFN SBS#61027 (engineered); details: paired with 61024, K562, 800 ng RNA each; 4.5 at 200 ng
[4] = system: ZFN SBS#61033 (engineered); details: paired with 61029, K562, 800 ng RNA each; 76.9 at 200 ng; with 61028 73.5
[5] = system: ZFN SBS#61035 (engineered); details: paired with 61029, K562, 800 ng RNA each; 63.6 at 200 ng; with 61028 68.7
[6] = system: ZFN SBS#61028 (engineered); details: paired with 61033, K562, 800 ng RNA each; 54.3 at 200 ng; with 61035 68.7
[7] = system: ZFN SBS#61029 (engineered); details: paired with 61033, K562, 800 ng RNA each; 76.9 at 200 ng; with 61035 80.7
[8] = system: ZFN SBS#61041 (engineered); details: paired with 61036, K562, 800 ng RNA each; 14.5 at 200 ng; with 61034 30.1
[9] = system: ZFN SBS#61042 (engineered); details: paired with 61036, K562, 800 ng RNA each; 12.9 at 200 ng; with 61034 26.1

Question: How did the activity [1] turn out when “CCCCAGTTGTAATTGTGAATATCTCATA (double strand) [CEP290 site of 61034/61036]” was run?
Answer: The activity was 30.1 % indels.

Question: What about the activity [2] of the same sequence?
Answer: The activity was 43.6 % indels.

Question: How did the activity [3] turn out when “TAGGGATAGGTATGAGATATTCACAATT (double strand) [CEP290 site of 61027]” was run?
Answer: Its activity is 27.1 % indels.

Question: How did the activity [4] turn out when “CCAATAGGGATAGGTATGAGATATTCAC (double strand) [CEP290 site of 61033/61035]” was run?
Answer: The activity was 85.4 % indels.

Question: And the activity [5]?
Answer: Its activity is 80.7 % indels.

Question: Which activity [6] does the source give for “TGGCCCCAGTTGTAATTGTGAATATCTC (double strand) [CEP290 site of 61028/61029]” here?
Answer: The activity was 73.5 % indels.

Question: And the activity [7]?
Answer: The activity was 85.4 % indels.

Question: What does the source list for “CCAATAGGGATAGGTATGAGATATTCAC (double strand) [CEP290 site of 61041/61042]”?
Answer: activity [8]: 43.6 % indels; activity [9]: 40.6 % indels
